Assay results reported in patent US20260224661A1 (Stanford University, published 2026).

B1: EF-hand Ca2+-binding domain of SPARCL1 (ligand)
chain: ACTDFEVAQFPLRMRDWLKNILMQLYEPNPKHGGYLNEKQRSKVKKIYLDEKRLLAGDHPIELLLRDFKKNYHMYVYPVHWQFNELDQHPADRILTHSELAPLRASLVPMEHCITRFFEECDPNKDKHITLKEWGHCFGIKEEDIDENLLF
notes: also called EF-hand domain; EC domain
B2: full-length SPARCL1 (ligand)
chain: IPTSTRFLSDHSNPTTATLVTPEDATVPIAGVEATADIENHPNDKAEKPSALNSEEETHEQSTEQDKTYSFEVDLKDEEDGDGDLSVDPTEGTLTLDLQEGTSEPQQKSLPENGDFPATVSTSYVDPNQRANITKGKESQEQPVSDSHQQPNESSKQTQDLKAEESQTQDPDIPNEEEEEEEDEEEEEEEEPEDIGAPSDNQEEGKEPLEEQPTSKWEGNREQSDDTLEESSQPTQISKTEKHQSEQGNQGQESDSEAEGEDKAAGSKEHIPHTEQQDQEGKAGLEAIGNQKDTDEKAVSTEPTDAAVVPRSHGGAGDNGGGDDSKHGAGDDYFIPSQEFLEAERMHSLSYYLKYGGGEETTTGESENRREAADNQEAKKAESSPNAEPSDEGNSREHSAGSCTNFQCKRGHICKTDPQGKPHCVCQDPETCPPAKILDQACGTDNQTYASSCHLFATKCRLEGTKKGHQLQLDYFGACKSIPACTDFEVAQFPLRMRDWLKNILMQLYEPNPKHGGYLNEKQRSKVKKIYLDEKRLLAGDHPIELLLRDFKKNYHMYVYPVHWQFNELDQHPADRILTHSELAPLRASLVPMEHCITRFFEECDPNKDKHITLKEWGHCFGIKEEDIDENLLF
B3: C-terminal SPARCL1-C domain of SPARCL1 (ligand)
chain: PNAEPSDEGNSREHSAGSCTNFQCKRGHICKTDPQGKPHCVCQDPETCPPAKILDQACGTDNQTYASSCHLFATKCRLEGTKKGHQLQLDYFGACKSIPACTDFEVAQFPLRMRDWLKNILMQLYEPNPKHGGYLNEKQRSKVKKIYLDEKRLLAGDHPIELLLRDFKKNYHMYVYPVHWQFNELDQHPADRILTHSELAPLRASLVPMEHCITRFFEECDPNKDKHITLKEWGHCFGIKEEDIDENLLF

Assays:
[1] = molecular target: T1, Tenm1 expressed in HEK293 cells (human, UniProt Q9UKZ4 1-2725); test: surface-binding assay on HEK293 cells expressing Tenm1 (FIG. 4E)
T1 construct: also called teneurin-1

[2] = molecular target: T2, Tenm4 expressed in HEK293 cells (mouse, UniProt Q3UHK6 1-2771); test: surface-binding assay on HEK293 cells expressing Tenm4 (FIG. 4E)
T2 construct: also called teneurin-4

[3] = molecular target: T3, Tenm3 expressed in HEK293 cells (mouse, UniProt Q9WTS6 1-2715); test: surface-binding assay on HEK293 cells expressing Tenm3 (FIG. 4E)
T3 construct: also called teneurin-3

[4] = molecular target: T4, Tenm2 expressed in HEK293 cells (human, UniProt Q9NT68 1-2774); test: surface-binding assay on HEK293 cells expressing Tenm2 (FIG. 4E)
T4 construct: also called teneurin-2

[5] = molecular target: Tenm1 (as used in the affinity determinations of FIG. 2E-F) (UniProt Q9UKZ4 1-2725); test: surface binding saturation curve
Sequence of Tenm1 (as used in the affinity determinations of FIG. 2E-F) (Q9UKZ4 other isoform, or with tags, fused parts or gaps): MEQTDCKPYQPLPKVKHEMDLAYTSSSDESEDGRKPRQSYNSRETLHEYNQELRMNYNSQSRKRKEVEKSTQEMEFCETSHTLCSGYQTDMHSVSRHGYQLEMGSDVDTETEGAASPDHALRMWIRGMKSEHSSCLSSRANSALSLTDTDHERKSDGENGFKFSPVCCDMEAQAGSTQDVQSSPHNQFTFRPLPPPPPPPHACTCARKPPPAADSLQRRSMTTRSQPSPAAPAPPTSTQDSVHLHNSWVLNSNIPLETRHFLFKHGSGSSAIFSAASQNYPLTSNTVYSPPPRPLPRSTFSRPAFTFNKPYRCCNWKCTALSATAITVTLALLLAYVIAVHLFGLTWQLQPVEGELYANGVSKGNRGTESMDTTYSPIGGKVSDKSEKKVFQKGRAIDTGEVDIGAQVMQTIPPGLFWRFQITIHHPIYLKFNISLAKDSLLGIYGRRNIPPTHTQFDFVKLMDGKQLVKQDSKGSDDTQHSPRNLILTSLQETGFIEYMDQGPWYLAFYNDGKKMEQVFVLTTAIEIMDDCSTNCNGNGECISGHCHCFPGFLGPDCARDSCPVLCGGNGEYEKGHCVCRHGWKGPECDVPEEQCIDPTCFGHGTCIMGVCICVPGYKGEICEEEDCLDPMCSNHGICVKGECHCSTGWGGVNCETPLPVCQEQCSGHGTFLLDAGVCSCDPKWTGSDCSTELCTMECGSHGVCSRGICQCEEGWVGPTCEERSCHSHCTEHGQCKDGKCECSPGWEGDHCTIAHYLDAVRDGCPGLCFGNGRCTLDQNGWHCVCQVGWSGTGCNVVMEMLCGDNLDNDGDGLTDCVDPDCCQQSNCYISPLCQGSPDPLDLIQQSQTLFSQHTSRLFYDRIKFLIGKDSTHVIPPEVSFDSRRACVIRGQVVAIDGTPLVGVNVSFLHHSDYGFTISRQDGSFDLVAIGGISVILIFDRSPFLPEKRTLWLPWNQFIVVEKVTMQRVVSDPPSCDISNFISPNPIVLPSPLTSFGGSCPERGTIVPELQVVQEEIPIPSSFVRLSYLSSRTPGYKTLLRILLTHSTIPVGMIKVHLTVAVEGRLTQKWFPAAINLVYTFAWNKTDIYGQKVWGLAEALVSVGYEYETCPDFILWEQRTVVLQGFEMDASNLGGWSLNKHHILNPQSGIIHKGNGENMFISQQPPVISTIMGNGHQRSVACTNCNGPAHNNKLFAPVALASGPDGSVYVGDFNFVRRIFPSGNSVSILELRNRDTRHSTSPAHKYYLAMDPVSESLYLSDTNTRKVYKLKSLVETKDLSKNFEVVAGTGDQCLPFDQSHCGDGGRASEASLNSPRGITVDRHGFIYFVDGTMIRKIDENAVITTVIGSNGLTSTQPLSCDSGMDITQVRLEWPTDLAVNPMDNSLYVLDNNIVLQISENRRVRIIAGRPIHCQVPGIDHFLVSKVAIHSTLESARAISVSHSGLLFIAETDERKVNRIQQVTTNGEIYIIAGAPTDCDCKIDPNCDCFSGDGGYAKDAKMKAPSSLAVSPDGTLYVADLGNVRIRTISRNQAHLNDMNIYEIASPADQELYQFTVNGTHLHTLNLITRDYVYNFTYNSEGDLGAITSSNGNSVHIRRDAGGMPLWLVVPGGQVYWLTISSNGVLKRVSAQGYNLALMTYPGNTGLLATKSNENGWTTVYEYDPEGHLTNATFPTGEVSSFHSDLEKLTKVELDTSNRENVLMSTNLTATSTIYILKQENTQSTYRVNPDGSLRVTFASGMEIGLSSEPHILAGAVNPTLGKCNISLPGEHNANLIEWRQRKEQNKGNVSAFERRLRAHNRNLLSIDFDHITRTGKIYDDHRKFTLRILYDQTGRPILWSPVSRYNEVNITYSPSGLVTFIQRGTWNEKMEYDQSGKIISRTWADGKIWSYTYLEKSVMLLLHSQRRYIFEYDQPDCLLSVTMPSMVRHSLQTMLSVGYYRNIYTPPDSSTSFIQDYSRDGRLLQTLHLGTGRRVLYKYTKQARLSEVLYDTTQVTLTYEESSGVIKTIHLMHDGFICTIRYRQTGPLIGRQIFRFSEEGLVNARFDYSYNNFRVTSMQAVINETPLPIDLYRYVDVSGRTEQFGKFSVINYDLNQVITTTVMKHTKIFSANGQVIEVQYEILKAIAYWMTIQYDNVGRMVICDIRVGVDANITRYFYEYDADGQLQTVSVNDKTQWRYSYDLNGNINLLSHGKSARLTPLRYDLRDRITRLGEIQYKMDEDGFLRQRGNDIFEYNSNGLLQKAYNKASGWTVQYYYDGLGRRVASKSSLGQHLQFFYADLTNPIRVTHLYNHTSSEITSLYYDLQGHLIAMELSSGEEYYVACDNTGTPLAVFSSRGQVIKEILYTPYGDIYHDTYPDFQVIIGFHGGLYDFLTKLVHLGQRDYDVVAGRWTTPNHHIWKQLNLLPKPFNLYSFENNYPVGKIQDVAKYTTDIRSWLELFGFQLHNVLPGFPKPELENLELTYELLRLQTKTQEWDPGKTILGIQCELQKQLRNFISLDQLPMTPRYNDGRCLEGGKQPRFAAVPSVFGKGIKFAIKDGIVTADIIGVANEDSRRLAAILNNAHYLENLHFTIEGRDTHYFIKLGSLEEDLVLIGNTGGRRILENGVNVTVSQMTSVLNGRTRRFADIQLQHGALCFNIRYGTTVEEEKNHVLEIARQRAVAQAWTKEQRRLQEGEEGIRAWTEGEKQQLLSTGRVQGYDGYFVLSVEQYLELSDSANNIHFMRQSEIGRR

T1 sequence (Q9UKZ4 other isoform, or with tags, fused parts or gaps): as above

Binder | binding result [1] | binding result [2] | binding result [3] | binding result [4] | Kd [5] [nM]
B1 | no binding | no binding | no binding | no binding | 
B2 |  |  |  |  | 73.2
B3 |  |  |  |  | 88.2
